Kd data for one molecule are collected here from PMC7953826 (Nature cell biology, 2020).

The target in the assay is actin (rabbit skeletal muscle G-actin, polymerised to F-actin) (rabbit, UniProt P68135 1-377). The assay can be described thus: co-sedimentation.

B1: Drosophila dynamin shibire (Shi) (enzyme)
chain: MDSLITIVNKLQDAFTSLGVHMQLDLPQIAVVGGQSAGKSSVLENFVGKDFLPRGSGIVTRRPLILQLINGVTEYGEFLHIKGKKFSSFDEIRKEIEDETDRVTGSNKGISNIPINLRVYSPHVLNLTLIDLPGLTKVAIGDQPVDIEQQIKQMIFQFIRKETCLILAVTPANTDLANSDALKLAKEVDPQGVRTIGVITKLDLMDEGTDARDILENKLLPLRRGYIGVVNRSQKDIEGRKDIHQALAAERKFFLSHPSYRHMADRLGTPYLQRVLNQQLTNHIRDTLPGLRDKLQKQMLTLEKEVEEFKHFQPGDASIKTKAMLQMIQQLQSDFERTIEGSGSALVNTNELSGGAKINRIFHERLRFEIVKMACDEKELRREISFAIRNIHGIRVGLFTPDMAFEAIVKRQIALLKEPVIKCVDLVVQELSVVVRMCTAKMSRYPRLREETERIITTHVRQREHSCKEQILLLIDFELAYMNTNHEDFIGFANAQNKSENANKTGTRQLGNQVIRKGHMVIQNLGIMKGGSRPYWFVLTSESISWYKDEDEKEKKFMLPLDGLKLRDIEQGFMSMSRRVTFALFSPDGRNVYKDYKQLELSCETVEDVESWKASFLRAGVYPEKQETQENGDESASEESSSDPQLERQVETIRNLVDSYMKIVTKTTRDMVPKAIMMLIINNAKDFINGELLAHLYASGDQAQMMEESAESATRREEMLRMYRACKDALQIIGDVSMATVSSPLPPPVKNDWLPSGLDNPRLSPPSPGGVRGKPGPPAQSSLGGRNPPLPPSTGRPAPAIPNRPGGGAPPLPGGRPGGSLPPPMLPSRVSGAVGGAIVQQSGANRYVPESMRGQVNQAVGQAAINELSNAFSSRFK
As a reminder, the Kd is a measure of binding affinity in units of concentration. Low values mean higher affinity, high ones lower affinity. Regarding B1, the Kd amounted to 190 ± 30 nM.
